Measurements as given in patent publication US20260274955A1 (JANUX THERAPEUTICS, published 2026).
Where two headings read alike, the source gives them in different places. No end group written: not given here.

B1: anti-CD28 Fab (Fab, V domains shown)
VH: QVQLVQSGAEVKKPGASVKVSCKASGYTFTSYYIHWVRQAPGQGLEWIGSIYPGNVNTNYNEKFKDRATLTVDTSISTAYMELSRLRSDDTAVYFCTRSHYGLDWNFDVWGQGTTVTVSS
VL: not shown
B2: Peptide-39 (peptide)
peptide: YCAGHAWQYINKCL
modifications: cysteine pairing not given here; also: biotinylated, site not given here
notes: synthetic peptide

Tests used:
Ab-1 [1] = molecular target: T1, Ab-1; test: BLI (Octet), 200 nM peptide, 100 nM Ab-1;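 as to t1/2: association and dissociation phases tracked in real time, with kinetics fitted to a 1:1 interaction model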
T1 construct: also called anti-CD28 scFv harbored in Ab-1

Ab-1 [2] = molecular target: T1, Ab-1; test: binding ELISA, peptide captured, Ab-1 titrated
Ab-1 [3] = molecular target: T1, Ab-1; test: BLI (Octet), peptide on sensor, Ab-1 titrated, 1:1 model
Ab-1 [4] = molecular target: T1, Ab-1; test: competition ELISA, peptide titrated vs 1 nM Ab-1 binding plate-bound CD28
Ab-1 [5] = molecular target: T1, Ab-1; test: as above; remark: listed apart in the source
[6] = molecular target: T2, anti-CD28 Fab (SEQ ID NOs: 202, 203); test: binding ELISA, peptide captured, anti-CD28 Fab titrated
T2 construct: biotinylated when captured in the phage ELISAs

Ab-1 [7] = molecular target: T1, Ab-1; test: binding ELISA, peptide captured, Ab-1 titrated; remark: listed apart in the source
Ab-1 [8] = molecular target: T1, Ab-1; test: BLI (Octet), 200 nM peptide, 100 nM Ab-1; remark: listed apart in the source;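 as to t1/2: association and dissociation phases tracked in real time, with kinetics fitted to a 1:1 interaction model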
Ab-1 [9] = molecular target: T1, Ab-1; test: BLI (Octet), 20 nM peptide, 100 nM Ab-1
Ab-1 [10] = molecular target: T1, Ab-1; test: BLI (Octet), peptide on sensor, Ab-1 titrated, 1:1 model; remark: listed apart in the source
[11] = molecular target: T2, anti-CD28 Fab (SEQ ID NOs: 202, 203); test: binding ELISA, peptide captured, anti-CD28 Fab titrated; remark: listed apart in the source
[12] = molecular target: T3, anti-CD28 scFv (SEQ ID NO: 35); test: BLI (Octet)
T3 construct: also called anti-CD28 scFv wt Vh-linker-Vl; human anti-CD28 scFv

Peptide-39 = molecular target: B2; test: BLI, peptide on sensor, Fab in solution, 1:1 model
Peptide-79 = molecular target: T4, Peptide-79 (cysteine pairing not given here; also: biotinylated, site not given here); test: BLI, peptide on sensor, Fab in solution, 1:1 model
T4 construct: optimization library of Peptide-39
T4 peptide: YCEGHLPEYLAKCL

Peptide-84 = molecular target: T5, Peptide-84 (cysteine pairing not given here; also: biotinylated, site not given here); test: BLI, peptide on sensor, Fab in solution, 1:1 model
T5 construct: optimization library of Peptide-39
T5 peptide: YCEGHLPEYRNKCL

Peptide-73 = molecular target: T6, Peptide-73 (cysteine pairing not given here; also: biotinylated, site not given here); test: BLI, peptide on sensor, Fab in solution, 1:1 model
T6 construct: optimization library of Peptide-39
T6 peptide: YCEGHAPEYIAKCL

Peptide-86 = molecular target: T7, Peptide-86 (cysteine pairing not given here; also: biotinylated, site not given here); test: BLI, peptide on sensor, Fab in solution, 1:1 model
T7 construct: optimization library of Peptide-39
T7 peptide: YCEGHLPEYIQKCL

Peptide-72 = molecular target: T8, Peptide-72 (cysteine pairing not given here; also: biotinylated, site not given here); test: BLI, peptide on sensor, Fab in solution, 1:1 model
T8 construct: optimization library of Peptide-39
T8 peptide: YCEGHLPEYIEKCL

Peptide-78 = molecular target: T9, Peptide-78 (cysteine pairing not given here; also: biotinylated, site not given here); test: BLI, peptide on sensor, Fab in solution, 1:1 model
T9 construct: optimization library of Peptide-39
T9 peptide: YCEGHLPEYREKCL

anti-CD28 Fab [13] = molecular target: B1; test: competition ELISA, alanine scan of Peptide-39, Fab binding plate-bound CD28
anti-CD28 Fab [14] = molecular target: B1; test: competition ELISA, alanine scan of Peptide-44, Fab binding plate-bound CD28

MDWCPRDLWVHCFA (cysteine pairing not given here; also: biotinylated, site not given here) [Peptide-1]
Octet signal (200 nM peptide) (Ab-1 [1]): 1.8 | EC50 (Ab-1 [2]): 0.001 µM | Kd (Ab-1 [3]): 0.0151 µM | t1/2 (Ab-1 [3]): 15.5 min | IC50 (Ab-1 [4]): 0.06 µM | IC50 (Ab-1 [5]): 0.2 µM | EC50 [6]: 0.49 µM | EC50 (Ab-1 [7]): 0.004 µM | Octet signal (Ab-1 [8]): 2.03 | t1/2 (Ab-1 [8]): 9.8 min | Octet signal (20 nM peptide) (Ab-1 [9]): 0.509

RDWCPRDLWVHCFA (cysteine pairing not given here; also: biotinylated, site not given here) [Peptide-3]
Kd (Ab-1 [3]): 0.0203 µM | t1/2 (Ab-1 [3]): 6.2 min | IC50 (Ab-1 [4]): 0.17 µM | EC50 (Ab-1 [7]): 0.0146 µM | Octet signal (Ab-1 [8]): 1.22 | t1/2 (Ab-1 [8]): 4.9 min

QDWCPRDLWVHCFA (cysteine pairing not given here; also: biotinylated, site not given here) [Peptide-6]
Kd (Ab-1 [3]): 0.0246 µM | t1/2 (Ab-1 [3]): 4.2 min | IC50 (Ab-1 [4]): 0.33 µM | EC50 (Ab-1 [7]): 0.0257 µM | Octet signal (Ab-1 [8]): 1.12 | t1/2 (Ab-1 [8]): 3.6 min

EDWCPRDLWVHCFA (cysteine pairing not given here; also: biotinylated, site not given here) [Peptide-7]
Kd (Ab-1 [3]): 0.0232 µM | t1/2 (Ab-1 [3]): 3.1 min | IC50 (Ab-1 [4]): 0.3 µM | EC50 (Ab-1 [7]): 0.0328 µM | Octet signal (Ab-1 [8]): 1.02 | t1/2 (Ab-1 [8]): 3 min

KDWCPRDLWVHCFA (cysteine pairing not given here; also: biotinylated, site not given here) [Peptide-12]
Kd (Ab-1 [3]): 0.0261 µM | t1/2 (Ab-1 [3]): 4.5 min | IC50 (Ab-1 [4]): 0.19 µM | EC50 (Ab-1 [7]): 0.0197 µM | Octet signal (Ab-1 [8]): 1.13 | t1/2 (Ab-1 [8]): 4 min

TDWCPRDLWVHCFA (cysteine pairing not given here; also: biotinylated, site not given here) [Peptide-16]
Kd (Ab-1 [3]): 0.0255 µM | t1/2 (Ab-1 [3]): 4.7 min | IC50 (Ab-1 [4]): 0.59 µM | EC50 (Ab-1 [7]): 0.024 µM | Octet signal (Ab-1 [8]): 1.34 | t1/2 (Ab-1 [8]): 4.2 min

LDWCPRHLWALCFN (cysteine pairing not given here; also: biotinylated, site not given here) [Peptide-22]
Octet signal (200 nM peptide) (Ab-1 [1]): 0.697 | EC50 (Ab-1 [2]): 0.0082 µM | IC50 (Ab-1 [5]): 0.47 µM

IDWCPRYLWDECYN (cysteine pairing not given here; also: biotinylated, site not given here) [Peptide-23]
Octet signal (200 nM peptide) (Ab-1 [1]): 1.52 | EC50 (Ab-1 [2]): 0.0021 µM | Kd (Ab-1 [10]): 0.016 µM | t1/2 (Ab-1 [10]): 9.1 min | IC50 (Ab-1 [5]): 0.14 µM

IDWCPLHLWHECYH (cysteine pairing not given here; also: biotinylated, site not given here) [Peptide-24]
Octet signal (200 nM peptide) (Ab-1 [1]): 0.838 | EC50 (Ab-1 [2]): 0.0133 µM | IC50 (Ab-1 [5]): 1.52 µM

VPWCQIISGLECLT (cysteine pairing not given here; also: biotinylated, site not given here) [Peptide-25]
Octet signal (200 nM peptide) (Ab-1 [1]): 0.166 | EC50 (Ab-1 [2]): 0.0549 µM | IC50 (Ab-1 [5]): > 100 µM

IYWCPIDRWNDCYN (cysteine pairing not given here; also: biotinylated, site not given here) [Peptide-26]
Octet signal (200 nM peptide) (Ab-1 [1]): 0.705 | EC50 (Ab-1 [2]): 0.0076 µM | IC50 (Ab-1 [5]): 0.41 µM

ACDTYFAGMINECF (cysteine pairing not given here; also: biotinylated, site not given here) [Peptide-31]
EC50 [6]: 0.097 µM

YCAGHSPINIGKCL (cysteine pairing not given here; also: biotinylated, site not given here) [Peptide-36]
EC50 [6]: 0.337 µM

YCAGHAWQYINKCL (cysteine pairing not given here; also: biotinylated, site not given here)
EC50 [6]: 0.049 µM

SCAAGASYAWPYCL (cysteine pairing not given here; also: biotinylated, site not given here)
EC50 [6]: 0.054 µM | EC50 [11]: 0.0189 µM

GYCHYWGDMVMWCG (cysteine pairing not given here; also: biotinylated, site not given here, biotinylated for capture in BLI) [Peptide-118]
binding result [12]: binds

B1
Kd (Peptide-39): 2.02 µM | koff (Peptide-39): 0.0202 s⁻¹ | kon (Peptide-39): 10000 M⁻¹ s⁻¹ | t½ (Peptide-39): 0.6 min | Kd (Peptide-79): 0.0447 µM | koff (Peptide-79): 0.0118 s⁻¹ | kon (Peptide-79): 264000 M⁻¹ s⁻¹ | t½ (Peptide-79): 1 min | Kd (Peptide-84): 0.11 µM | koff (Peptide-84): 0.0138 s⁻¹ | kon (Peptide-84): 125000 M⁻¹ s⁻¹ | t½ (Peptide-84): 0.8 min | Kd (Peptide-73): 0.831 µM | koff (Peptide-73): 0.028 s⁻¹ | kon (Peptide-73): 33700 M⁻¹ s⁻¹ | t½ (Peptide-73): 0.4 min | Kd (Peptide-86): 0.0402 µM | koff (Peptide-86): 0.0115 s⁻¹ | kon (Peptide-86): 286000 M⁻¹ s⁻¹ | t½ (Peptide-86): 1 min | Kd (Peptide-72): 0.926 µM | koff (Peptide-72): 0.0239 s⁻¹ | kon (Peptide-72): 25800 M⁻¹ s⁻¹ | t½ (Peptide-72): 0.5 min | Kd (Peptide-78): 0.141 µM | koff (Peptide-78): 0.0191 s⁻¹ | kon (Peptide-78): 135000 M⁻¹ s⁻¹ | t½ (Peptide-78): 0.6 min

B2
IC50 (anti-CD28 Fab [13]): 12600 µM

B3: Peptide-62 (peptide)
peptide: YCAGHAAQYINKCL
notes: alanine scanning peptide of Peptide-39 (W7A)
IC50 (anti-CD28 Fab [13]): 3160 µM

B4: Peptide-63 (peptide)
peptide: YCAGHAWAYINKCL
notes: alanine scanning peptide of Peptide-39 (Q8A)
IC50 (anti-CD28 Fab [13]): 12300 µM

B5: Peptide-65 (peptide)
peptide: YCAGHAWQYANKCL
notes: alanine scanning peptide of Peptide-39 (I10A)
IC50 (anti-CD28 Fab [13]): 102000 µM

B6: Peptide-66 (peptide)
peptide: YCAGHAWQYIAKCL
notes: alanine scanning peptide of Peptide-39 (N11A)
IC50 (anti-CD28 Fab [13]): 5490 µM

B7: Peptide-68 (peptide)
peptide: YCAGHAWQYINKCA
notes: alanine scanning peptide of Peptide-39 (L14A)
IC50 (anti-CD28 Fab [13]): 98600 µM

SCAAGASYAWPYCL (cysteine pairing not given here; also: biotinylated, site not given here, synthetic peptide)
IC50 (anti-CD28 Fab [14]): 7890 µM

ACAAGASYAWPYCL [Peptide-51]
IC50 (anti-CD28 Fab [14]): 21000 µM

SCAAGAAYAWPYCL [Peptide-53]
IC50 (anti-CD28 Fab [14]): 7420 µM

SCAAGASYAWPACL [Peptide-57]
IC50 (anti-CD28 Fab [14]): 13000 µM

SCAAGASYAWPYCA [Peptide-58]
IC50 (anti-CD28 Fab [14]): 76400 µM
